Reference: paper PMC10185811 (2023)
Each block holds one binder with its values, some of them ahead of it.

Key:
[1] = molecular target: T1, His6-RPN1 WT (human, UniProt Q13200 1-908); experiment: BLI
[2] = molecular target: T1, His6-RPN1 WT; experiment: BLI; in presence of GST; unit inferred, M assumed
[3] = molecular target: T1, His6-RPN1 WT; experiment: BLI; NUB1L pre-bound to GST-FAT10; unit inferred, M assumed

T1 sequence (Q13200 whole entry): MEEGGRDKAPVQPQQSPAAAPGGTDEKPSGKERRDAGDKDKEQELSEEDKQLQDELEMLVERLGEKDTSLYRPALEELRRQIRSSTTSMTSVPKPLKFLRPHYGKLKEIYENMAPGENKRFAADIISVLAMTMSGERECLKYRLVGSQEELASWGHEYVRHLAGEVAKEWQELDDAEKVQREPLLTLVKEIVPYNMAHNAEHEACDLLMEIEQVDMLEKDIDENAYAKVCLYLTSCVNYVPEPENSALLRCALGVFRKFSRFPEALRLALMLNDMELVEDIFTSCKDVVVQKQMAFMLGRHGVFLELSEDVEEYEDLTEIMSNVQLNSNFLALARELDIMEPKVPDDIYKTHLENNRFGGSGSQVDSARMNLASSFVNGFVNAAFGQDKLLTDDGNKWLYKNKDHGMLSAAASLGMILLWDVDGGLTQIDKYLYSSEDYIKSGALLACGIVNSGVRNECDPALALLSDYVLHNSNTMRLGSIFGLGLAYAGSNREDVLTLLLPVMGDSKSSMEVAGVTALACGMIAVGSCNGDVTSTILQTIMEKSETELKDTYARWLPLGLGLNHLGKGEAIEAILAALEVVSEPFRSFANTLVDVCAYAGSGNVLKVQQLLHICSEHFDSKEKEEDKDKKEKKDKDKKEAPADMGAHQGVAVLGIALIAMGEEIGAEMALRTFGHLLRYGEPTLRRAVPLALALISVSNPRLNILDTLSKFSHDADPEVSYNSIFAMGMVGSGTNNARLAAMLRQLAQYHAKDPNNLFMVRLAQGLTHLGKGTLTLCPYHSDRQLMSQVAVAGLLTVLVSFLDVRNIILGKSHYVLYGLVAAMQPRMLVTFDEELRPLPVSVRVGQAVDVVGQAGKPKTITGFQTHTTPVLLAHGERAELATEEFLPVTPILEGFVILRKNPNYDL

Kd [1]: 0.00171 mM | Kd [2]: 1560 nM
B1: NUB1L (NEDD8 ultimate buster 1 long), tagless (natural protein)
chain: MAQKKYLQAKLTQFLREDRIQLWKPPYTDENKKVGLALKDLAKQYSDRLECCENEVEKVIEEIRCKAIERGTGNDNYRTTGIATIEVFLPPRLKKDRKNLLETRLHITGRELRSKIAETFGLQENYIKIVINKKQLQLGKTLEEQGVAHNVKAMVLELKQSEEDARKNFQLEEEEQNEAKLKEKQIQRTKRGLEILAKRAAETVVDPEMTPYLDIANQTGRSIRIPPSERKALMLAMGYHEKGRAFLKRKEYGIALPCLLDADKYFCECCRELLDTVDNYAVLQLDIVWCYFRLEQLECLDDAEKKLNLAQKCFKNCYGENHQRLVHIKGNCGKEKVLFLRLYLLQGIRNYHSGNDVEAYEYLNKARQLFKELYIDPSKVDNLLQLGFTAQEARLGLRACDGNVDHAATHITNRREELAQIRKEEKEKKRRRLENIRFLKGMGYSTHAAQQVLHAASGNLDEALKILLSNPQMWWLNDSNPETDNRQESPSQENIDRLVYMGFDALVAEAALRVFRGNVQLAAQTLAHNGGSLPPELPLSPEDSLSPPATSPSDSAGTSSASTDEDMETEAVNEILEDIPEHEEDYLDSTLEDEEIIIAEYLSYVENRKSATKKN

Kd [1]: 4.04 mM
B2: GST-FAT10 (natural protein)
chain: MAPNASCLCVHVRSEEWDLMTFDANPYDSVKKIKEHVRSKTKVPVQDQVLLLGSKILKPRRSLSSYGIDKEKTIHLTLKVVKPSDEELPLFLVESGDEAKRHLLQVRRSSSVAQVKAMIETKTGIIPETQIVTCNGKRLEDGKMMADYGIRKGNLLFLACYCIGG

Kd [3]: 432 nM
B3: NUB1L-bound GST-FAT10 (NUB1L co-incubated with GST-FAT10) (complex)
chain 1: B1 chain
chain 2: B2 chain
